From paper PMC11470942 (Nature Communications, 2024)

Biological target: HPIV3 fusion protein (F), parental (Human parainfluenza virus 3, strain …, UniProt P06828)
Test: immunostaining of cells or tissue

Chain of HPIV3 fusion protein (F), parental (P06828 19-539): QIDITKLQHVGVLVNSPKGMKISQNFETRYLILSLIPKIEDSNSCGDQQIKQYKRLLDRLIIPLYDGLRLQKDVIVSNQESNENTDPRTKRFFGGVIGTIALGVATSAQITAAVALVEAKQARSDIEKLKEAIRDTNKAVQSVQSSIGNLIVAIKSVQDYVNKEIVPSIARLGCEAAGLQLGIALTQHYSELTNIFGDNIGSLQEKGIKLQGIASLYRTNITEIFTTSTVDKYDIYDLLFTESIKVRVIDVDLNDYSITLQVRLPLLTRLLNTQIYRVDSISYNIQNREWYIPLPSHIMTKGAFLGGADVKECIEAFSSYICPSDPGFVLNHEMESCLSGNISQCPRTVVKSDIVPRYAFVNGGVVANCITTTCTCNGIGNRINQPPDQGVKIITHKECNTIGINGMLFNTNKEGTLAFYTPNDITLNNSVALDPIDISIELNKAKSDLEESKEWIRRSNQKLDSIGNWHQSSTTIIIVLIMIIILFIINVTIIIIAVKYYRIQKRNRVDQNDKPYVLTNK

B1: PIA174 antibody fragment (Fab) (Fab, V domains shown)
VH: VQLQESGPGLVKPSETLSLTCTVSGGSVSSYYWSWIRQPPGKGLEWIGNIYYSGTTKYNPSLKSRVTISVDVSKNQFSLNLISVTAADTAVYFCARQVKSGWFVQPFDYWGQGALVTVSS
VL: QMTQSPPSLSAYVGDRVTITCRASQAIANYLAWFQQKPGKAPKSLIYAASTLQSGVPSRFSGSGSGTDFTLTISSLQPEDFATYYCHQYNTYPITFGQGTRLEIK
binding result: binds
